Measured values from patent US20180185504A1 (Regeneron, published 2018).

Assays:
[1] = biological target: T1, human prolactin receptor (PRLR) (human, UniProt P16471 25-622); test: cell-based or functional assay
T1 sequence: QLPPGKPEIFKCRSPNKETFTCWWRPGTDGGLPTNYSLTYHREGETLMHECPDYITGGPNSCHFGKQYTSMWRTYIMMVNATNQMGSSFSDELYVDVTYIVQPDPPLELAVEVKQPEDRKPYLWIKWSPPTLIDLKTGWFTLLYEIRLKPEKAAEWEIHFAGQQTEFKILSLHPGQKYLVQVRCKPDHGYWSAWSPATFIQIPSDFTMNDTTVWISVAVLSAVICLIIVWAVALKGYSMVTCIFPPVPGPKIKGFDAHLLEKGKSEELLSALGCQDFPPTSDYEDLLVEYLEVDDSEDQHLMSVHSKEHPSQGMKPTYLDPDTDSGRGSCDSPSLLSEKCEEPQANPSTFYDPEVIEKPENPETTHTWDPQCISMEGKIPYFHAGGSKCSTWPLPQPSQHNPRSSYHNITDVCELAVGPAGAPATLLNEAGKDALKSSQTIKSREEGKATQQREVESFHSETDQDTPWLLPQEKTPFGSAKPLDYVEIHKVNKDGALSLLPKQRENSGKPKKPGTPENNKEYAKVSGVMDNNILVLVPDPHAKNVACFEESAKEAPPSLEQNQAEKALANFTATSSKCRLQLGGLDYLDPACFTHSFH

[2] = biological target: T1, human prolactin receptor (PRLR); test: cell-based or functional assay; remark: listed apart in the source
[3] = biological target: T2, hPRLR.mFc (soluble dimeric human PRLR) (human); test: SPR Biacore, 25 C, mAb capture
T2 construct: dimeric PRLR construct
T2 chain: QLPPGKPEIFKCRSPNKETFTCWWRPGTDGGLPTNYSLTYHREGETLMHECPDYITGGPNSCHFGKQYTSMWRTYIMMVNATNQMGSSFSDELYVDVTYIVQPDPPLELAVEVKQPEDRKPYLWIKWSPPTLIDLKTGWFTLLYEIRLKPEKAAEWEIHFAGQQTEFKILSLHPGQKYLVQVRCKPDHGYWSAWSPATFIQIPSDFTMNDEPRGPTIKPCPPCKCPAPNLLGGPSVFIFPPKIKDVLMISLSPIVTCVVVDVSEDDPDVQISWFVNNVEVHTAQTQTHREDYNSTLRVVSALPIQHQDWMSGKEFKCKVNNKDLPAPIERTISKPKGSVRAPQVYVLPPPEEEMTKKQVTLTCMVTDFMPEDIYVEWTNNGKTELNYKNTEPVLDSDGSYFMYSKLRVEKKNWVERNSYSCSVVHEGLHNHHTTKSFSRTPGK
Experimental: (§1) Measurements were conducted on a T200 Biacore instrument. Kinetic association (kₐ) and dissociation (kd) rate constants were determined by processing and fitting the data to a 1:1 binding model using Scrubber 2.0 curve fitting software.

[4] = biological target: T3, macaca fascicularis (mf) PRLR.mmh (soluble monomeric monkey PRLR) (Macaca fascicularis); test: SPR Biacore, 25 C, mAb capture
T3 construct: called soluble monomeric PRLR protein
T3 chain: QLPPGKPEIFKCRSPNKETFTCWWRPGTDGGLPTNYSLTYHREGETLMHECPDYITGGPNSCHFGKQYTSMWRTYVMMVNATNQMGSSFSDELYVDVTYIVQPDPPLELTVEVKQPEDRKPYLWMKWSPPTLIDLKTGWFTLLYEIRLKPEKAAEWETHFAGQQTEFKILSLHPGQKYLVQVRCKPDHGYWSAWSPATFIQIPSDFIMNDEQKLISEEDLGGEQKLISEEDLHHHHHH
Experimental: as §1

[5] = biological target: T4, hPRLR.mmh (soluble monomeric human PRLR) (human); test: SPR Biacore, 25 C, mAb capture
T4 construct: called soluble monomeric PRLR protein
T4 chain: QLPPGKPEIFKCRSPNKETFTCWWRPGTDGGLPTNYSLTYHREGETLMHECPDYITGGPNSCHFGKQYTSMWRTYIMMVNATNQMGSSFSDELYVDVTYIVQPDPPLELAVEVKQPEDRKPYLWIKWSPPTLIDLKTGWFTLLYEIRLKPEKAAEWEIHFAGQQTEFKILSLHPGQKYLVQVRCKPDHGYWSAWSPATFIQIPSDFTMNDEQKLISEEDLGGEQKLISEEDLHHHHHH
Experimental: as §1

B1: H1H6793P-DM1 (antibody, human IgG1, V domains shown)
VH: EVQLVESGGGLVQPGGSLRLSCAASGFSFSIYAMSWFRQAPGKGLEWVSAINGRGDGTHYADSVKGRFTISRDNSKTTLYLQMSSLRAEDTAVYYCAKPVMSTNGFDIWGQGTMVTVSS
VL: DIQMTQSPSTLSASVGDRVTITCRASQSISSWLAWYQLKPGKAPKLLIYKASNLESGVPSRFSGSGSGTEFTLTISSLQPDDFATYYCQQYNIYWTFGQGTKVEIK
modifications: DM1 conjugated through SMCC linker; attachment residues not stated
For B1, the “% Kill, PC3/PRLR cells” value [1] was 65%, the “IC50, cell viability, PC3/PRLR cells” value [1] was 3.65 nM and the “% Kill, MCF7/PRLR cells” value [2] was 87%. For the same binder, the “% Kill, MCF7 cells” value [2] was 67%, the “% Kill, T47D cells” value [2] was 53% and the “IC50, cell viability, MCF7/PRLR cells” value [2] was 0.54 nM. The “IC50, cell viability, MCF7 cells” value [2] was 125 nM and the “IC50, cell viability, T47D cells” value [2] was 11.1 nM.

B2: H1H6800P-DM1 (antibody, human IgG1, V domains shown)
VH: EVQLVESGGGLVQPGRSLRLSCAASGFTFDGYAMHWVRQGPGKGLEWVSGISWYSDTLGYADSVKGRFTISRDNAKNSLYLQMNSLRTEDTAFYYCAKISSSGWAFDYWGQGTLVTVSS
VL: EIVLTQSPGTLSLSPGERATLSCRASHSVSSAYLAWYQQKPGQTPRLLIYGTSSRATGIPDRFSGSGSGTDFTLTISRLEPEDFAVYYCQQYGSSPLFTFGPGTKVDIK
modifications: DM1 conjugated through SMCC linker; attachment residues not stated
With B2 the “% Kill, PC3/PRLR cells” value [1] was 68%, the “IC50, cell viability, PC3/PRLR cells” value [1] was 1.37 nM and the “% Kill, MCF7/PRLR cells” value [2] was 85%. For the same binder, the “% Kill, MCF7 cells” value [2] was 65%, the “% Kill, T47D cells” value [2] was 79% and the “IC50, cell viability, MCF7/PRLR cells” value [2] was 0.4 nM. The “IC50, cell viability, MCF7 cells” value [2] was 150 nM and the “IC50, cell viability, T47D cells” value [2] was 3.2 nM.

B3: H1H6762P-DM1 (antibody, human IgG1, V domains shown)
VH: QVQLVESGGGVVQPGRSLRLSCAASGFTFSHYGMVWVRQPPGKGLEWVALISFDGTTKYYADSVKGRFTISRDNSKNTLYLQMNSLRAEDTAVYFCVGAIAAAAFDLWGRGTLVTVSS
VL: EIVMTQSPATLSVSPGERATLSCRASQSVSSDLAWYQQKPGQAPRLLIYSASARATGIPARFTGSGSGTDFTLTISSLQSEDFAVYYCQQYNNWPMYTFGQGTKLEIK
modifications: DM1 conjugated through SMCC linker; attachment residues not stated
In the case of B3, the “% Kill, PC3/PRLR cells” value [1] is reported as 66%, the “IC50, cell viability, PC3/PRLR cells” value [1] is reported as 0.98 nM and the “% Kill, MCF7/PRLR cells” value [2] is reported as 83%. For the same binder, the “% Kill, MCF7 cells” value [2] was 64%, the “% Kill, T47D cells” value [2] was 80% and the “IC50, cell viability, MCF7/PRLR cells” value [2] was 0.46 nM. For the same binder, the “IC50, cell viability, MCF7 cells” value [2] was 110 nM and the “IC50, cell viability, T47D cells” value [2] was 12.6 nM.

B4: H1H6960N-DM1 (antibody, human IgG1, V domains shown)
VH: EVQLVESGGGLVKPGGSLRLSCAASGITFSSYSMNWVRQAPGKGLEWVSSISTRSSLIHYADSVKGRFTISRDNAKNSLYLQMNSLRDEDTAVYYCARWDAAAAFDYWGQGTLVIVSS
VL: DIQLTQSPSFLSASVGDRVTITCWASQGISSYLAWYQQKPGKAPKLLIYVASTLQSGVPSRFSGSGSGTEFTLTISSLQPEDFATYFCQQLNSYPLTFGGGTKVEIK
modifications: DM1 conjugated through SMCC linker; attachment residues not stated
For B4, the “% Kill, 293/PRLR cells” value [1] was 95%, the “% Kill, PC3/PRLR cells” value [1] was 82% and the “IC50, cell viability, 293/PRLR cells” value [1] was 0.38 nM. The “IC50, cell viability, PC3/PRLR cells” value [1] was 1.13 nM, the “% Kill, MCF7/PRLR cells” value [2] was 78% and the “% Kill, MCF7 cells” value [2] was 77%. For the same binder, the “% Kill, T47D cells” value [2] was 71%, the “IC50, cell viability, MCF7/PRLR cells” value [2] was 0.29 nM and the “IC50, cell viability, MCF7 cells” value [2] was 100 nM. For the same binder, the “IC50, cell viability, T47D cells” value [2] was 5.1 nM.

B5: H1H6960N (antibody, human IgG1, V domains shown)
VH: EVQLVESGGGLVKPGGSLRLSCAASGITFSSYSMNWVRQAPGKGLEWVSSISTRSSLIHYADSVKGRFTISRDNAKNSLYLQMNSLRDEDTAVYYCARWDAAAAFDYWGQGTLVIVSS
VL: DIQLTQSPSFLSASVGDRVTITCWASQGISSYLAWYQQKPGKAPKLLIYVASTLQSGVPSRFSGSGSGTEFTLTISSLQPEDFATYFCQQLNSYPLTFGGGTKVEIK
notes: Tested with human IgG1 Fc (H1H); also called H2M6960N
For B5, the Kd [3] was 0.141 nM, the T½ [3] was 324 min and the koff [3] was 3.56e-05 s⁻¹. The kon [3] was 252000 M⁻¹ s⁻¹, the Kd [4] was 6.2 nM and the T½ [4] was 19.8 min. For the same binder, the koff [4] was 0.000583 s⁻¹, the kon [4] was 94000 M⁻¹ s⁻¹ and the Kd [5] was 6.74 nM. It also gave a T½ [5] of 15.8 min, a koff [5] of 0.000729 s⁻¹ and a kon [5] of 108000 M⁻¹ s⁻¹.
